According to article PMC4802085 (2016):

What was measured:
HO1 [1] = target: T1, HO1 (Homo sapiens); test: SPR
T1 chain: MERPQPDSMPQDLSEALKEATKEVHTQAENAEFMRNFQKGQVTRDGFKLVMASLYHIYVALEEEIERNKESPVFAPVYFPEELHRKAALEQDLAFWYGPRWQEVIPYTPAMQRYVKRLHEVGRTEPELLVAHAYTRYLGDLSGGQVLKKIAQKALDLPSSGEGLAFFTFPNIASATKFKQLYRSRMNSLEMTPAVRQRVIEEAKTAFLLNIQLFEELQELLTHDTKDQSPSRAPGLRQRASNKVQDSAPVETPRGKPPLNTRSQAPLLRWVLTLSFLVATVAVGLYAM

HO1 [2] = target: T1, HO1; test: SPR
Gαi1 [3] = target: Gαi1 (Homo sapiens); test: SPR
Gαi1 [4] = target: Gαi1 (Homo sapiens); test: SPR; remark: listed apart in the source
[5] = target: T2, recombinant PGRMC1 of the surface plasmon resonance analyses (human, UniProt O00264 44-195); test: SPR; haem-bound PGRMC1
T2 sequence (O00264 44-195): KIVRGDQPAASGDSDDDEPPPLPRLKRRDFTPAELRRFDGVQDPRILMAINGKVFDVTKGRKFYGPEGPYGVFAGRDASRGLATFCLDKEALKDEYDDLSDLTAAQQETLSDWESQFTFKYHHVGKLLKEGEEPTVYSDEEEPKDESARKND

[6] = target: T2, recombinant PGRMC1 of the surface …; test: SPR; haem-bound PGRMC1; remark: listed apart in the source

Sequence of Gαi1 (Homo sapiens) (chain, as listed by the source): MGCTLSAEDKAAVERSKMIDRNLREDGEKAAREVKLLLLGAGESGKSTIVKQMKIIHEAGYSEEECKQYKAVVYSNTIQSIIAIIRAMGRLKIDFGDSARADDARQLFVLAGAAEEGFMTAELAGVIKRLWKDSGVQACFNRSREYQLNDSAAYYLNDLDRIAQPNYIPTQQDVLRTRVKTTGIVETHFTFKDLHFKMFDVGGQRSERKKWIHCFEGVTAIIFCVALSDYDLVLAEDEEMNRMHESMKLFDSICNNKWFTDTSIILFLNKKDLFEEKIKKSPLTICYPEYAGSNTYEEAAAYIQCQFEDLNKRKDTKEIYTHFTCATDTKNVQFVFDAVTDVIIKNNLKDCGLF

B1: CPR (protein)
chain: MGDSHVDTSSTVSEAVAEEVSLFSMTDMILFSLIVGLLTYWFLFRKKKEEVPEFTKIQTLTSSVRESSFVEKMKKTGRNIIVFYGSQTGTAEEFANRLSKDAHRYGMRGMSADPEEYDLADLSSLPEIDNALVVFCMATYGEGDPTDNAQDFYDWLQETDVDLSGVKFAVFGLGNKTYEHFNAMGKYVDKRLEQLGAQRIFELGLGDDDGNLEEDFITWREQFWPAVCEHFGVEATGEESSIRQYELVVHTDIDAAKVYMGEMGRLKSYENQKPPFDAKNPFLAAVTTNRKLNQGTERHLMHLELDISDSKIRYESGDHVAVYPANDSALVNQLGKILGADLDVVMSLNNLDEESNKKHPFPCPTSYRTALTYYLDITNPPRTNVLYELAQYASEPSEQELLRKMASSSGEGKELYLSWVVEARRHILAILQDCPSLRPPIDHLCELLPRLQARYYSIASSSKVHPNSVHICAVVVEYETKAGRINKGVATNWLRAKEPAGENGGRALVPMFVRKSQFRLPFKATTPVIMVGPGTGVAPFIGFIQERAWLRQQGKEVGETLLYYGCRRSDEDYLYREELAQFHRDGALTQLNVAFSREQSHKVYVQHLLKQDREHLWKLIEGGAHIYVCGDARNMARDVQNTFYDIVAELGAMEHAQAVDYIKKLMTKGRYSLDVWS
modifications: FAD and FMN cofactors; literature comparison value, construct not given, full length and human species assumed haem state not stated; literature comparison value, the cited study may have used a C-terminally truncated soluble form
Q: How did the koff (HO1 [1]) turn out when B1 was run?
A: 0.004 s⁻¹

Q: What about the Kd (HO1 [2]) of the same binder?
A: 2400 nM

B2: Neuroglobin (protein)
chain: MERPEPELIRQSWRAVSRSPLEHGTVLFARLFALEPDLLPLFQYNCRQFSSPEDCLSSPEFLDHIRKVMLVIDAAVTNVEDLSSLEEYLASLGRKHRAVGVKLSSFSTVGESLLYMLEKCLGPAFTPATRAAWSQLYGAVVQAMSRGWDGE
modifications: haem b bound (oxidation state not stated); literature comparison value, construct not given; check residues are from general knowledge, not the paper nucleotide state not stated; literature comparison value, construct and species not given; check residues are from general knowledge, not the paper
Q: What does the source list for B2?
A: koff (Gαi1 [3]): 0.0003 s⁻¹; Kd (Gαi1 [4]): 600 nM

B3: recombinant CYP51 (enzyme)
chain: MAAAAGMLLLGLLQAGGSVLGQAMEKVTGGNLLSMLLIACAFTLSLVYLIRLAAGHLVQLPAGVKSPPYIFSPIPFLGHAIAFGKSPIEFLENAYEKYGPVFSFTMVGKTFTYLLGSDAAALLFNSKNEDLNAEDVYSRLTTPVFGKGVAYDVPNPVFLEQKKMLKSGLNIAHFKQHVSIIEKETKEYFESWGESGEKNVFEALSELIILTASHCLHGKEIRSQLNEKVAQLYADLDGGFSHAAWLLPGWLPLPSFRRRDRAHREIKDIFYKAIQKRRQSQEKIDDILQTLLDATYKDGRPLTDDEVAGMLIGLLLAGQHTSSTTSAWMGFFLARDKTLQKKCYLEQKTVCGENLPPLTYDQLKDLNLLDRCIKETLRLRPPIMIMMRMARTPQTVAGYTIPPGHQVCVSPTVNQRLKDSWVERLDFNPDRYLQDNPASGEKFAYVPFGAGRHRCIGENFAYVQIKTIWSTMLRLYEFDLIDGYFPTVNYTTMIHTPENPVIRYKRRSK
Q: For B3, which koff [5] is on record?
A: 0.0012 s⁻¹

Q: What about the Kd [6] of the same binder?
A: 5900 nM
